In US20240270821A1, “GIP/GLP1/GCG TRI-RECEPTOR AGONISTS AND USES THEREOF” (priority 2023, published 2024):
Starred links: 1 amine or outer side, 2 acyl side, 3 side chain; linkers in the order of their positions; H or OH if unused. Non-standard residues stand in square brackets, D forms with d. Groups on a side chain read outwards from the residue. No end group written: not given here. *: point of attachment. C20 diacid = O=C(O)CCCCCCCCCCCCCCCCCCC(=O)*; C18 diacid = O=C(O)CCCCCCCCCCCCCCCCC(=O)*; Phe(4-CN) = N#Cc1ccc(C[C@H](N)C(=O)O)cc1; αMePhe(2-F) = C[C@](N)(Cc1ccccc1F)C(=O)O; γGlu = O=C(O)[C@H](CCC(=O)[*:2])N[*:1]; αMeF = C[C@](N)(Cc1ccccc1)C(=O)O; αMeL = CC(C)C[C@](C)(N)C(=O)O; Orn = NCCC[C@H](N)C(=O)O; AEEA = NCCOCCOCC(=O)O; Aib = CC(C)(N)C(=O)O

T1: hGIPR (Homo sapiens, UniProt P48546)
T1 sequence (P48546 22-466): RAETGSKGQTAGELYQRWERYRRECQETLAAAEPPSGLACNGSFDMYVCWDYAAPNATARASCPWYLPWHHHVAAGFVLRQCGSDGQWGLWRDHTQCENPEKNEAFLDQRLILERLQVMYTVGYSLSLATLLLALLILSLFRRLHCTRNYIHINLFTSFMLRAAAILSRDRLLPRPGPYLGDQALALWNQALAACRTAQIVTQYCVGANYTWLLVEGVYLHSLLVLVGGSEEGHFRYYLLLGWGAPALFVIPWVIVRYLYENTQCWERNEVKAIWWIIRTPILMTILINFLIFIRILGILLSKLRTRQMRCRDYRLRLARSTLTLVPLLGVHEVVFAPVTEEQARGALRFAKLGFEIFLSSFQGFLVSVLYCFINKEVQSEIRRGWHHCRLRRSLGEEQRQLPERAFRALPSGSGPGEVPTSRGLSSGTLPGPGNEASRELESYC

T2: human GIP receptor (human) (UniProt P48546)
T2 sequence (looked up): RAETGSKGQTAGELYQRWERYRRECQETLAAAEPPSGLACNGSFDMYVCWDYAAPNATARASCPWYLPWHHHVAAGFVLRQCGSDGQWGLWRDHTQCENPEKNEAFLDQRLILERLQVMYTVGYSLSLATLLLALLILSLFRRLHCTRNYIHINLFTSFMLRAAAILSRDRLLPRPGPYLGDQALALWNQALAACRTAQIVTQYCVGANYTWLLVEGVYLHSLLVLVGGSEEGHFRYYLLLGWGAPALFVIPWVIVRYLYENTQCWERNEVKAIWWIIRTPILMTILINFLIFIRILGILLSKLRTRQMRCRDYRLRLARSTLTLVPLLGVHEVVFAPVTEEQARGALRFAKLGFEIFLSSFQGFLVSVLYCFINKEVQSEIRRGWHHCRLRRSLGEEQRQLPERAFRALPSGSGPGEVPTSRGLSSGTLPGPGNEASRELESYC


Columns and labels:
[1] = biological target: T1, hGIPR; test: Functional cAMP activation in the presence of 0.1% casein (no HSA); type: cell-based; details: in the presence of 0.1% casein (no HSA); geometric mean; read-out: Relative cAMP EC50, hGIPR;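 for Relative cAMP EC50, hGIPR: intracellular cAMP rise after 30 min at 37 °C read by HTRF against a standard curve, scaled between buffer alone (0%) and top control ligand concentration (100%), four-parameter fit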;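 for Relative cAMP EC50, hGcgR: intracellular cAMP rise after 30 min at 37 °C, read by HTRF against a cAMP standard curve, scaled from buffer only (0%) to maximal control ligand response (100%)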
[2] = biological target: T1, hGIPR; test: Functional cAMP activity in the presence of 1% HSA; type: cell-based; details: read-out: cAMP Rel EC50, hGIPR
[3] = biological target: T3, hGLP-1R (Homo sapiens, UniProt P43220); test: Functional cAMP activation in the presence of 0.1% casein (no HSA); type: cell-based; details: in the presence of 0.1% casein (no HSA); geometric mean; read-out: Relative cAMP EC50, hGLP-1R;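 note: intracellular cAMP rise after 30 min at 37 °C read by HTRF, normalized between buffer only (0%) and maximal control ligand (100%), four-parameter variable-slope fit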
Target sequence in this assay (P43220 24-463): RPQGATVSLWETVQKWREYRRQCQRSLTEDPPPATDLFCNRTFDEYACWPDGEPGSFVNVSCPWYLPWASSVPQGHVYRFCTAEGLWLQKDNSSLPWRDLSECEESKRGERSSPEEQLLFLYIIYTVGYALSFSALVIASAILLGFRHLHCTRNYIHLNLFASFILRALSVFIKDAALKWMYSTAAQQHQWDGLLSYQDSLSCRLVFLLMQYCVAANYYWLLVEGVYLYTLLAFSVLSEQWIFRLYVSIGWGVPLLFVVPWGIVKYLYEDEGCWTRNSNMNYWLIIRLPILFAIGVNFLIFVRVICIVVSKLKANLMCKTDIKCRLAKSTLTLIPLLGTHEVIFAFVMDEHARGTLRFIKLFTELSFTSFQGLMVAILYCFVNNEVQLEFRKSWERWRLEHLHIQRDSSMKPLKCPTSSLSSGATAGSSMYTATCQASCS

[4] = biological target: hGcgR (Homo sapiens, UniProt P47871); test: as above; type: cell-based; details: in the presence of 0.1% casein (no HSA); geometric mean; read-out: Relative cAMP EC50, hGcgR;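 note: intracellular cAMP rise after 30 min at 37 °C, read by HTRF against a cAMP standard curve, scaled from buffer only (0%) to maximal control ligand response (100%)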
Chain of hGcgR (P47871 26-477): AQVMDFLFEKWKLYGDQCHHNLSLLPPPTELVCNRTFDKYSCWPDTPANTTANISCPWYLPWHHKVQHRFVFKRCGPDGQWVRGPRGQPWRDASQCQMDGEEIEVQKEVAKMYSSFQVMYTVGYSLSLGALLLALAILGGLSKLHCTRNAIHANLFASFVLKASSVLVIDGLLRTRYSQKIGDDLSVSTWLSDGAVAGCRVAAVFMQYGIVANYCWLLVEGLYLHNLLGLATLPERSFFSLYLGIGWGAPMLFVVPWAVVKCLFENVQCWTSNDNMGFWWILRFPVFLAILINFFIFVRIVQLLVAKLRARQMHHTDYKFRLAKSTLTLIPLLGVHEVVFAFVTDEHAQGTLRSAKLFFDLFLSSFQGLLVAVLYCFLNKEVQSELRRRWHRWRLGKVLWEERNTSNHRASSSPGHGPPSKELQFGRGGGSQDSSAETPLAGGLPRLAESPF

[5] = biological target: T3, hGLP-1R; test: GLP-1R CHO cell β-arrestin recruitment assay; type: cell-based; set-up: host or cells: CHO-K1 (PathHunter, assay-ready frozen cells); details: for EC50: CHO-K1 PathHunter, β-arrestin-2, 0.1% casein, read-out: hGLP1R β-arrestin Rel EC50; for % Stimulation Max: normalized to GLP-1(7-36) as maximum control;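 for all read-outs here: luminescence read after 90 min peptide exposure at 37 °C and a further 60 min with detection reagent at room temperature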
Target sequence in this assay (P43220 24-463): as the sequence (P43220 24-463) above
Target sequence in this assay (P32121 whole entry partner): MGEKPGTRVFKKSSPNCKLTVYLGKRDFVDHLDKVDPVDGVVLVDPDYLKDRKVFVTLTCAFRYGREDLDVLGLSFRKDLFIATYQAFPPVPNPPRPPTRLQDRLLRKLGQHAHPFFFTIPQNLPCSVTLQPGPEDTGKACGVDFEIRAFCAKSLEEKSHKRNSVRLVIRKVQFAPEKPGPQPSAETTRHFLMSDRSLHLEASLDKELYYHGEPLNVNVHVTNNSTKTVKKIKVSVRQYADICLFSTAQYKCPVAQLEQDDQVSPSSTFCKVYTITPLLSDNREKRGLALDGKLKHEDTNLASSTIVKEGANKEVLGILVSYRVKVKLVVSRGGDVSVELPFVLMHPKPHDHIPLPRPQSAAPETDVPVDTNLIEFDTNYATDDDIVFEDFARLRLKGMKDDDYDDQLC

[6] = biological target: human GcgR (Homo sapiens, UniProt P47871); test: Functional cAMP activity in the presence of 1% HSA; type: cell-based; details: read-out: cAMP Rel EC50, hGcgR
Chain of human GcgR (P47871 26-477): as the sequence (P47871 26-477) above

[7] = biological target: T3, hGLP-1R; test: Functional cAMP activity in the presence of 1% HSA; type: cell-based; details: read-out: cAMP Rel EC50, hGLP-1R
Target sequence in this assay (P43220 24-463): as the sequence (P43220 24-463) above

[8] = biological target: human glucagon receptor (human) (UniProt P47871); test: cell-based or functional assay
Chain of human glucagon receptor (human) (P47871 26-477): as the sequence (P47871 26-477) above

[9] = biological target: human GLP-1R (SNAP-GLP-1R expressed in HEK293 cells) (human) (UniProt P43220); test: cell-based or functional assay
Chain of human GLP-1R (SNAP-GLP-1R expressed in HEK293 cells) (human) (P43220 24-463): as the sequence (P43220 24-463) above

[10] = biological target: T2, human GIP receptor (human); test: cell-based or functional assay
[11] = biological target: T3, hGLP-1R; test: cell-based or functional assay
Target sequence in this assay (P43220 24-463): as above

[12] = biological target: Pro-Link-tagged Human GLP-1R (human) (UniProt P43220); test: cell-based or functional assay
Chain of Pro-Link-tagged Human GLP-1R (human) (P43220 24-463): as above

[13] = biological target: human GLP1-R (SNAP-GLP-1R expressed in HEK293 cells) (human) (UniProt P43220); test: cell-based or functional assay
Chain of human GLP1-R (SNAP-GLP-1R expressed in HEK293 cells) (human) (P43220 24-463): as above

| Molecule | EC50 [1] [nM] | EC50 [2] [nM] | EC50 [3] [nM] | EC50 [4] [nM] | EC50 [5] [nM] | % Stimulation Max [5] [%] | EC50 [6] [nM] | EC50 [7] [nM] | Relative cAMP EC50 [8] [nM] | Relative cAMP EC50 [10] [nM] | Relative cAMP EC50 [11] [nM] | % Stimulation Max [12] [%] | hGLP1R β-arrestin Rel EC50 [12] [nM] | cAMP Rel EC50 (in the presence of 1% HSA) [8] [nM] | GLP1R Internalization EC50 [13] [nM] | Internalization % TOP [13] [%] | cAMP Rel EC50 (in the presence of 1% HSA) [10] [nM] | cAMP Rel EC50 (in the presence of 1% HSA) [11] [nM] | further results |
| --- | --- | --- | --- | --- | --- | --- | --- | --- | --- | --- | --- | --- | --- | --- | --- | --- | --- | --- | --- |
| H-H[Aib]QGT[αMePhe(2-F)]TSDYSILLDKK([AEEA-γGlu-C20 diacid])AA[Aib]AFIEYLIEAGPSSGEPPPSEG-NH2 [Example 298] | 0.138 | 41.3 | 0.277 | 1.04 | 3.29 | 86.4 | 1570 | 70.9 | – | – | – | – | – | – | – | – | – | – | – |
| H-Y[Aib]QGTFTSDYSI[αMeL]LDKIAAK([AEEA-AEEA-γGlu-C20 diacid])[Orn]FVQYLIAGGPSSGEPPPSEG-NH2 [Example 308] | – | 237 | 3.15 | 14.2 | 16.9 | 41.4 | 4950 | 477 | – | – | – | – | – | – | – | – | – | – | – |
| H-Y[Aib]QGTFTSDYSI[αMeL]LDKK([AEEA-AEEA-γGlu-C20 diacid])AA[Aib]AFIEYLLEGGPSSGEPPPSEG-NH2 [Example 294] | 0.318 | 54.1 | 2.16 | 1.07 | 27.7 | 35.3 | 518 | 554 | – | – | – | – | – | – | – | – | – | – | – |
| H-Y[Aib]QGTFTSDYSI[αMeL]LDKQAAK([AEEA-AEEA-γGlu-C20 diacid])AFVEWLLAGGPSSGEPPPSEG-NH2 [Example 305] | 1 | 92.4 | 1.48 | 6.73 | 23.3 | 58.3 | 1500 | 415 | – | – | – | – | – | – | – | – | – | – | – |
| H-Y[Aib]QGT[αMeF]TSDYSILLDKIAAK([AEEA-AEEA-γGlu-C18 diacid])NFIEYLVEGGPSSGEPPPSEG-NH2 [Example 307] | 0.446 | 65.3 | 0.836 | 1.68 | 9.86 | 70.8 | 1880 | 209 | – | – | – | – | – | – | – | – | – | – | – |
| H-Y[Aib]QGT[αMePhe(2-F)]TSDYSILLDKIAQK([AEEA-γGlu-C20 diacid])AFIEYLLEGGPSSGEPPPSEG-NH2 [Example 293] | 0.0587 | 9.63 | 0.994 | 4.01 | 11.9 | 54.6 | 1740 | 295 | – | – | – | – | – | – | – | – | – | – | – |
| H-Y[Aib]QGT[αMePhe(2-F)]TSDYSKILDKIAQK([AEEA-γGlu-C20 diacid])AFIEYLLEGGPSSGEPPPSEG-NH2 [Example 311] | 0.113 | 26.1 | 3.36 | 2.08 | 19.2 | 39.6 | 2500 | 1080 | – | – | – | – | – | – | – | – | – | – | – |
| Y[Aib]QGT[αMePhe(2-F)]TSD[Phe(4-CN)]SILLDKQAQK([AEEA-AEEA-γGlu-C20 diacid])AFIEYLLEGGPSSGEPPPSEG-NH2 [Example 321] | – | – | – | – | – | – | – | – | 4.49 | 0.0912 | 0.798 | 90.1 | 8.78 | – | – | – | – | – | cAMP Rel EC50 (1% HSA) [8]: 836 nM; GLP1R Internalization EC50 [9]: 27.1 nM; Internalization % TOP [9]: 92.8%; cAMP Rel EC50 (1% HSA) [10]: 13 nM; cAMP Rel EC50 (1% HSA) [11]: 110 nM |
| YXQGTFTSDFSKXLDKKAQXAFIEYLLAGGPSSGEPPPSEG (synthetic construct; SITE 2: note = 2-Aminoisobutyric Acid; SITE 13: note = alpha-methyl-leucine; SITE 17: note = Lysine is chemically modified through conjugation of the epsilon-amino group of the Lysine side chain with (2-[2-(2-Amino-ethoxy)-ethoxy]-acetyl)-(gamma-Glu)-CO-(CH2) 18-CO2H; SITE 20: n) [Example 1] | – | – | – | – | – | – | – | – | 3.72 | 0.207 | 1.42 | 17.3 | > 10000 | 1690 | 44.7 | 69.1 | 73.9 | 524 | – |
| YXQGTFTSDFSKXLDKKAQXAFIEYLLAGGPSSGEPPPSSE (synthetic construct; SITE 2: note = 2-Aminoisobutyric Acid; SITE 13: note = alpha-methyl-leucine; SITE 17: note = Lysine is chemically modified through conjugation of the epsilon-amino group of the Lysine side chain with (2-[2-(2-Amino-ethoxy)-ethoxy]-acetyl)2-(gamma-Glu)-CO-(CH2 )18-CO2H; SITE 20:) [Example 5] | – | – | – | – | – | – | – | – | 7.4 | 0.177 | 2.37 | 18.4 | > 10000 | 2670 | 53.4 | 75 | 32.5 | 675 | – |
| YXQGTFTSDFSKXLDKKAQXAFIEYLLAGGPSSGEPPPSGE (synthetic construct; SITE 2: note = 2-Aminoisobutyric Acid; SITE 13: note = alpha-methyl-leucine; SITE 17: note = Lysine is chemically modified through conjugation of the epsilon-amino group of the Lysine side chain with (2-[2-(2-Amino-ethoxy)-ethoxy]-acetyl)-(gamma-Glu)-CO-(CH2) 18-CO2H; SITE 20: n) [Example 2] | – | – | – | – | – | – | – | – | 4.29 | 0.207 | 1.65 | 12.3 | > 10000 | 1630 | 49.5 | 66.8 | 75.5 | 631 | – |
| YXQGTFTSDFSKXLDKKAQXAFIEYLLAGGPSSGEPPPSEE (synthetic construct; SITE 2: note = 2-Aminoisobutyric Acid; SITE 13: note = alpha-methyl-leucine; SITE 17: note = Lysine is chemically modified through conjugation of the epsilon-amino group of the Lysine side chain with (2-[2-(2-Amino-ethoxy)-ethoxy]-acetyl)-(gamma-Glu)-CO-(CH2) 18-CO2H; SITE 20: n) [Example 4] | – | – | – | – | – | – | – | – | 3.2 | 0.192 | 1.66 | 15.8 | 23.2 | 1580 | 49.1 | 67.8 | 62.3 | 869 | – |
| YXQGTFTSDFSKXLDKKAQXAFIEYLLAGGPSSGEPPPSSE (not fully specified; synthetic construct; SITE 2: note = 2-Aminoisobutyric Acid; SITE 13: note = alpha-methyl-leucine; SITE 17: note = Lysine is chemically modified through conjugation of the epsilon-amino group of the Lysine side chain with (2-[2-(2-Amino-ethoxy)-ethoxy]-acetyl)-(gamma-Glu)-CO-(CH2) 18-CO2H; SITE 20: n) [Example 3] | – | – | – | – | – | – | – | – | 3.8 | 0.217 | 1.67 | 16.5 | > 10000 | 1590 | 49.2 | 69.7 | 48.1 | 546 | – |
| Y[Aib]QGTFTSDYSI[αMeL]LDKIAAK([AEEA-AEEA-γGlu-C20 diacid])QFVQWLIE[Aib]GPSSGEPPPSEG-NH2 (ends and bridges not checked) [Example 323] | – | – | – | – | – | – | – | – | 6.04 | 0.232 | 1.56 | 44 | 10.8 | – | – | – | – | – | cAMP Rel EC50 (1% HSA) [8]: 1440 nM; GLP1R Internalization EC50 [9]: 28.2 nM; Internalization % TOP [9]: 84.8%; cAMP Rel EC50 (1% HSA) [10]: 37.7 nM; cAMP Rel EC50 (1% HSA) [11]: 293 nM |
